# B1: Shingleback nidovirus 1 (nucleic acid)
# DNA: CTGTGAGTACCGACAGGCTCGAAGTCTATTATGAGGCGTCGAAACAGAAAACCTGTAACAACTCCGGTTTCATCTATCACTGCCGTCAAGAGGCAGAAGAGGACGACCACGTGTCACCAGATCACTTGTATCTGTTTCAGTCAGGAAGTCAACTTTTCGACGAAGTTCGACCATTCATCGACCCGCTGAAAAGCGTAGAAGTCGATGAAGATGAGCTCCAAAGAGCCATCGCCGATTTCGACAACCAAAGTGACTGTTTCCACTCCTTCGAGCTCGTGAATTTCGAGCTGAAACAACAAATCAACGAGAACGAGTGGTACGGTTATTATAATTACGACAACCAAAACTGCAAAGTTCAGTTGCCAGTCACATGTCGAATCGAGGACGTAACCTGGGATCAGGTTTACGTG
# modifications: Shingleback nidovirus 1
# B2: Porcine reproductive and respiratory syndrome virus 2 (nucleic acid)
# DNA: ATGACGTATAGGTGTTGGCTCTATGCCTTGGCATTTGTATTGTCAGGAGCTGTGACCATTGGCACAGCCCAAAACTTGCTGCACAGAAACACCCTTCTGTGATAGCCTCCTTCAGGGGAGCTTAGGGTTTGTCCCTAGCACCTTGCTTCCGGAGTTGCACTGCTTTACGGTCTCTCCACCCCTTTAACC
# modifications: lipid formulation; source: /note="Description of Unknown: Porcine reproductive and respiratory syndrome virus 2 sequence"
# B3: Rabovirus A (nucleic acid)
# DNA: CTACGGATATTTGCATGACCCGCTTTCTATCGCCCCAACAATCCCCTTTGTAACCACAAGCTTTACTCAGGCTAGCAGCCCGACTAGCTGTTTGGAAGAAAAGGCTAGGGCACACACCAACAACACCGACCCCACTGGTCGAAGGCCGCTTGGCAATAAGACTGGTGGAACAGGGTCGCCTGTAGTTGTTTGGAACATTCTTTCTAATGACTTTGTCAGCGGTGCTACTCACACCGTAACTCTTCTACCCTATCCCCACGCTTGTGGAACTAGGAGGGGATGAGTGATTCAAGTAAGTACTGTCAGAATGGTGAAAATGATCTGATTCTGAAACGCTATGGATCCATCGAAAGATGGGGCTACACGCCTGCGGAACAACACATGGTAACATGTGCCCCAGGGGCCGAAAGCCACGGTGATAGGATCACCCGTGTAGTTTGAGATCATATCAATGTTCATAGTCTAGTAAGATGATTTGAAATCTAACTGAGCTGATGGCTAACTGCTTGTCTTATTGCGGCCTAAGGATGTCCTGCAGGTACCTTTAGATAACCTTAAGAGACTATTGATCTGAGCAGGAGCCAAAGTGGTCTTTCCCAGCTTTGGTTAAAAAACGTCTAAGCCGCGGCAGGGGGCGGGAGGCCCCCTTTCCTCCCAAAACTTAATATTGATTGT
# modifications: lipid formulation; Rabovirus A
# B4: Yak enterovirus (nucleic acid, listed as Enterovirus sp.)
# DNA: CTCCGGCACAGCCGCACCAGTGCACTGGTACGCTAGTACCTTTTCACGGGGTAGTCGGTATCCCCCCCCGTAACTTAGAAGCATGTAACAAACCGACCAATAGGTGCGCGGCAGCCAGCTGCGTTGCGGTCAAGCACTTCTGTCTCCCCGGTCCGCAAGGATCGTTACCCGCCCACTCCACTACGAGGAGCCTAGTAACTGGCCAAGTGATTGCGGAGTTGCGTTCAGCCACAACCCCAGTGGTAGCTCTGGAAGATGGGGCTCGCACATCCCCCGTGGTAACACGGTTGCTTGCCCGCGTGTGCTTCCGGGTTCAGTCTCCGACTGTTCACTTCAACATCACGCAACCAGCCAAGAGCCGATTGTGCTGGAGTGGTCTTCCTCCGGGGCCGTGAATGCTGCTAATCCTAACCTCCGAGCGTGTGCGCACAATCCAGTGTTGCTACGTCGTAACGCGTAAGTTGGAGGCGGAACAGACTACTTTCGGCACCCCGTGTTTCCTTTATTTTATTCTTATTTTATGGTGACAATTGCAGAGATTTGTGATATTGCGACTTTACCGTTAAACATAGCACTGCATTACCTGGTTGCATTCCACAAAACTTCAGAGATTCCTAGTTCCTACATTGACCTACTTGTTTATTTGAATCTTAAATACAAACTTGAGCAAGTGAA
# B5: Avian orthoreovirus segment S1 (nucleic acid, listed as Avian orthoreovirus)
# DNA: GCTTTTTCAATCCCTTGTGTCGATGTTCCCGTATGTCATCTGGTTCATGTAACGGTGCAACTTCTATTTTTGGTAACGTTCACTGTCAGGCAGCGCAAAACTCGGCGGGTGGTGATCTTCAAGCGACTTCCTCTCTTGTTGCTTATTGGCCCTACTTGGCTGCGGGCGGTGGTCTGCTCGTTGTTATTATTATAATTGTTGGCGCTGTTTGTTGTTGCAAGGCTAAGGTTAAAGCGGACGCAGCCCGAAACGTTTTCTACCGAGAGCTGTTCGCACTTAATTCGGGTAAAAGTGATGCAGGACCTCCGATTTACCAGGTTTAGTGTACGACGATTTGAGTTTTCACCTTTCGTCTTAGAGGAGTGCACTACTCCATCTTTCACGACTATAACTAATACCGATCCGGCTCTCTACTTTAACATTGAGTTTCCGTCAAGTCATCGTCTCTCCCCCTTCATTCCAGAACTGTTGTCTCAGCCTTGTACCGTTCACGTTTCATTGATTCGGAGATTCGCTCTCTGTGCAACCTTATCTAGTATTTGTGAATACGACTGTGCGCTACTGCCATCCATCAACGCTATTACGACGATCCCTACACCAGGTGCGTCATCATCTCTGATTGTTCATTGGG
# B6: Wobbly possum disease virus (nucleic acid)
# DNA: CGGCTGTGAGTGCTTAGCATATGCTAGAGTACTACAGCCGGGTGTTGGAGTCATATGCACTGGTTGCCTGTATAATAGTCGGGATCTGTCTGACCTACATTATCTTTGGGAGTTGCTTATCACGACAATTCTCGAAGTGTCTGTCGACAGCTTACCCCCGATTCGACAAGGCCCCTTGTCCACCGCAGACCTATCGATTTTCAACGAGAACACTATCAGAGGTTTAAATTTAAAACTCACCAACA
# modifications: source: /note="Description of Unknown: Wobbly possum disease virus sequence"
# B7: Sclerotinia sclerotiorum dsRNA mycovirus-L (nucleic acid)
# DNA: TTGAATTAATCTTTTACGTTTACGCGCATAAAATCAGGACACATCTCTTGTATACTTTAGTATATCAATGATGTTTTTGTTTTATGCGATTAATCGTAAGAGAACTTCTTTCCATCCGCCTGTATGGGCGGGATAATAAGTTCACCGCCTTGGTCGAGGCGCAAACTTGTATGTGCAAAGGTGAGCTATATGCTCGAAATAGTCGTAACTAACACACAGCCACTACCTGTAGAGCTCTATTGATCCGGAATCCTTTAGTGGGAATGCAGAGCTCACACCGGACCTGCGGGTATCTTCGGCGTTAGGGACTTCTGTTTCAGCCTTGAATCATTTACCTTTATACCTTCTCTGAGGCGCCTGGGCCGGGCGCGATATTAAGTACAAGTCAAGGACATCGCGGGTAGTGGTCTAATCAGCCGCTAGTCCTGCTGGAGAGTTCCAACTTAGTTGGGTGTGGTGCATACTAGCTGGATAGAGTAGGTATGTATTGCTAACGTATGCCGGAGGCTATCCGTCCTCGGTAGAACGTGCCGAGGAGTAGTCTCTGCAGACCCCCGAACGCGTGGGGTCTTTACTTAAATGTAGGCGGAGGGAGCGCTCGTAGGTGGAACGACTGCCTCCCAGTCGAATGCAAGATTTTGCACGCGGACCAGTCTGCCCGGCAATTCCCGGGTG
# modifications: source: /note="Description of Unknown: Sclerotinia sclerotiorum dsRNA mycovirus-L sequence"
# B8: Seneca valley virus (nucleic acid)
# DNA: TTTGAAATGGGGGGCTGGGCCCTGATGCCCAGTCCTTCCTTTCCCCTTCCGGGGGGTTAACCGGCTGTGTTTGCTAGAGGCACAGAGGGGCAACATCCAACCTGCTTTTGCGGGGAACGGTGCGGCTCCGATTCCTGCGTCGCCAAAGGTGTTAGCGCACCCAAACGGCGCACCTACCAATGTTATTGGTGTGGTCTGCGAGTTCTAGCCTACTCGTTTCTCCCCCGACCATTCACTCACCCACGAAAAGTGTGTTGTAACCATAAGATTTAACCCCCGCACGGGATGTGCGATAACCGTAAGACTGGCTCAAGCGCGGAAAGCGCTGTAACCACATGCTGTTAGTCCCTTTATGGCTGCAAGATGGCTACCCACCTCGGATCACTGAACTGGAGCTCGACCCTCCTTAGTAAGGGAACCGAGAGGCCTTCGTGCAACAAGCTCCGACACAGAGTCCACGTGACTGCTACCACCATGAGTACATGGTTCTCCCCTCTCGACCCAGGACTTCTTTTTGAATATCCACGGCTCGATCCAGAGGGTGGGGCATGACCCCTAGCATAGCGAGCTACAGCGGGAACTGTAGCTAGGCCTTAGCGTGCCTTGGATACTGCCTGATAGGGCGACGGCCTAGTCGTGTCGGTTCTATAGGTAGCACATACAAAT
# modifications: source: /note="Description of Unknown: Seneca valley virus sequence"
# B9: Picornavirales Tottori-HG1 (nucleic acid)
# DNA: AGCCATGAACTAGTGTGCGATTCCCACAGTGTTGGTCGAAAGCCCCGCACTGTCTACTCGCATATTTGACTCCAGTCCTTCCGCAGCCAGCGGTTAGGTTCTGGTTAAAGTGCATTATGTGCACGGCGCCACGCAGAACTGCCAGAAATGGTAAGCTGCGCCCAACGCCAACGGTTTGTGTATCCCGTTAGTCACACGTTTACAGCTGTTCGTTAACAGTAGGGTTTTGTCGACCCGGACCCCTTAATGCGCGCGAATTCAACCGCGCCTAGTCGGCAATGGTATCATTTAATCCCATGCACTACGGGAGAAATTTGAGACCAAAGAATTCCTGAGGGCCACTGCTTGCTCTAAGTGCAATGCCTCGGGAGACTTCTGTCAGGAGCCTAGCGGCTTTCAACCGCGACAGCTAACTCCTGCGGGATGTTTGGTGTCCATACTTACTGGCGTCCTCACAACGCTAAGTGGATGTTGTCCACAGGTAGGCAAACACCGAGCCCCACATTCAGGAGACCTGTATGAACGATCCTATCAGCATTAGAGTTGGAATTGGGTGTGCTAACGTCCGCATAAGTGCACCCCGTGGTAACGCTGGGAAACTATCCAGCGCAACGTACTGTCCTCAATGTCTAGGGAAGGACCGCCCTAAGCGTACAACCGGGCCATGTGTCGAGC
# modifications: lipid formulation; source: /note="Description of Unknown: Picornavirales Tottori-HG1 sequence"
# Tested on: HEK293 cells
# Type: cell-based, human
# Settings: circular RNA encoding Gluc with the listed IRES (UTR truncated to 675 nt) transfected into HEK293 cells; supernatant after 24 hours
row,Molecule,Expression (luminescence from secreted Gluc protein)
1,B1,2.62E+05
2,B2,1.29E+05
3,B3,2.88E+06
4,B4,6.19E+06
5,B5,4.37E+05
6,B6,2.60E+05
7,B7,1.69E+05
8,B8,1.46E+07
9,B9,9.54E+04

# From US20240245805A1 (Orna Therapeutics, Inc., priority 2020, published 2024)
